Measurements as given in publication PMC5378893 (Scientific Reports, 2015).
Numbering of substitutions follows the chain as printed.

B1: GH2-40 IgG (antibody, V domains shown)
VH: EVQLVESGGGLVQPGGSLRLSCAASGFTINSWGIHWVRQAPGKGLEWVAWIGPYWGFTSYADSVKGRFTISADTSKNTAYLQMNSLRAEDTAVYYCARFDGHFDGVMDYWGQGTLVTVSS
VL: DIQMTQSPSSLSASVGDRVTITCRASQDVNNGVAWYQQKPGKAPKLLISGTPWLYSGVPSRFSGSGSGTDFTLTISSLQPEDFATYYCQQYFDWPLTFGQGTKVEIK
notes: source: HEK293-F, transient transfection, purified (Protein A, Superdex 200)
B2: GH2-78 IgG (antibody, V domains shown)
VH: B1 VH with S31N, W50G, W55G, F57Y, D100G, G101V, H102I, F103I, V106I
VL: B1 VL with G32S, G50W, T51P, P52T, W53G, F92Y, D93S, L96I
notes: as for B1
B3: GH2-7 IgG (antibody, V domains shown)
VH: EVQLVESGGGLVQPGGSLRLSCAASGFTIDDYFIHWVRQAPGKGLEWVAGIGPSWGYTFYADSVKGRFTISADTSKNTAYLQMNSLRAEDTAVYYCARFGHNFVNGMDYWGQGTLVTVSS
VL: B1 VL with N30S, N31G, G32W, P52A, W53G, F92Y, W94F, L96V
notes: as for B1
B4: GH2-59 IgG (antibody, V domains shown)
VH: EVQLVESGGGLVRPGGSLRLSCAASGFTIGDWYIHWVRQAPGKGLEWVAGIGPYWGYTSYADSVKGRFTISADTSKNTAYLQMNSLRAEDTAVYYCARFVGDVWHDMDYWGQGTLVAVSS
VL: B1 VL with N30S, N31G, G50W, P52G, W53S, Y91W, F92S, W94F, L96I
notes: as for B1
B5: GH2-81 IgG (antibody, V domains shown)
VH: B1 VH with S31D, W32Y, W50G, Y54F, W55G, F57Y, D100G, G101V, H102L
VL: B1 VL with N31D, G50F, P52T, W53G, F92Y, D93N, L96I
notes: as for B1
B6: GH2-42 IgG (antibody, V domains shown)
VH: B1 VH with N30S, S31N, W50G, W55G, F57Y, D100G, G101F, H102Y, V106I
VL: B1 VL with N30S, N31S, T51P, P52T, W53G, F92Y, E105K, I106R, K107G
notes: as for B1
B7: GH2-61 IgG (antibody, V domains shown)
VH: B1 VH with S31N, W50G, G52W, W55G, F57Y, S59Y, D100Y, G101N, F103H, D104G
VL: B1 VL with N30G, N31S, G32N, G50W, T51S, P52T, W53S, F92G, D93G, L96I
notes: as for B1
B8: GH2-87 IgG (antibody, V domains shown)
VH: EVQLVESGGGLVQPGGSLRLSCAASGFTISSYGIHWVRQAPGKGLEWVAGIGPFGGFTSYADSVKGRFTISADTSKNTAYLQMNSLRAEDTAVYYCARFLNIHLGWMDYWGQGTLVTVSS
VL: B1 VL with G32S, S49F, P52R, W53Y, F92Y, D93N, W94Y
notes: as for B1
B9: GH2-72 IgG (antibody, V domains shown)
VH: EVQLVESGGGLVQPGGSLRLSCAASGFTISNGGIHWVRQAPGKGLEWVAYIWPSGGYTFYADSVKGRFTISADTSKNTAYLQMNSLRAEDTAVYYCARFFNNDWIGMDYWGQGTLVTVSS
VL: B1 VL with N30G, N31Y, G32F, P52T, F92S, D93N
notes: as for B1
B10: GH2-91 IgG (antibody, V domains shown)
VH: B1 VH with S31N, W32F, W50S, Y54F, F57Y, D100G, G101N, H102D, F103Y
VL: B1 VL with Q27H, N30G, N31W, G50W, T51P, P52T, W53Y, D93S, W94Y, L96I
notes: as for B1
B11: GH2-60 IgG (antibody, V domains shown)
VH: EVQLVESGGGLVQPGGSLRLSCAASGFTISDFGIHWVRQAPGKGLEWVAGIWPYWGYTYYADSVKGRFTISADTSKNTAYLQMNSLRAEDTAVYYCARFWNIYWNVMDYWGQGTLVTVSS
VL: B1 VL with S7G, N30G, N31S, G32W, G50S, T51P, W53S, Y91G, W94S, L96I
notes: as for B1
B12: GH2-65 IgG (antibody, V domains shown)
VH: B11 VH with S30D, F32W, G50W, Y59F, W100L, N101D, I102W, Y103N, W104N, V106W
VL: B1 VL with N30S, N31G, G32W, G50S, T51A, P52S, W53F, F92Y, W94F, L96V
notes: as for B1
B13: GH2-54 IgG (antibody, V domains shown)
VH: EVQLVESGGGLVQPGGSLRLSCAASGFTISDGSIHWVRQAPGKGLEWVAFIGPYWGFTYYADSVKGRFTISADTSKNTAYLQMNSLRAEDTAVYYCARFVNWVHYGMDYWGQGTLVTVSS
VL: DIQMTQSPSSLSASVGDRVTITCRASQDVNDNVAWYQQKPGKAPKLLIFGSSSLYSGVPSRFSGSGSGTDFTLTISSLQPEDFATYYCQQGWNYPFTFGQGTKVEIK
notes: as for B1
B14: GH2-66 IgG (antibody, V domains shown)
VH: EVQLVESGGGLVQPGGSLRLSCAASGFTIGNWGIHWVRQAPGKGLEWVAYIWPYWGFTYYADSVKGRFTISADTSKNTAYLQMNSLRAEDTAVYYCARFLDWNLLWMDYWGQGTLVTVSS
VL: DIQMTQSPSSLSASVGDRVTITCRASQDVYSYVAWYQQKPGKAPKLLISYASGLYSGVPSRFSGSGSGTDFTLTISSLQPEDFATYYCQQYYNSPITFGQGTKVEIK
notes: as for B1
B15: GH2-75 IgG (antibody, V domains shown)
VH: EVQLVESGGGLVQPGGSLRLSCAASGSTIGNSGIHWVRQAPGKGLEWVAYIGPYGGYTSYADSVKGRFTISADTSKNTAYLQMNSLRAEDTAVYYCARFDDYHWDGMDYWGQGTLVTVSS
VL: DIQMTQSPSSLSASVGDRVIITCRASQDVSGYVAWYQQKPGKAPKLLIYSSGVPSRFSGSGSGTDFTLTISSLQPEDFATYYCQQYYNWPVTFGQGTKVEIK
notes: as for B1
B16: Fab37 (positive control IgG) (antibody, V domains shown)
VH: EVQLVESGGGLVQPGGSLRLSCAASGFSIWWSWIHWVRQAPGKGLEWVASISPSSGWTSYADSVKGRFTISADTSKNTAYLQMNSLRAEDTAVYYCARWWSSAMDYWGQGTLVTVSS
VL: DIQMTQSPSSLSASVGDRVTITCRASQSVSSAVAWYQQKPGKAPKLLIYSASSLYSGVPSRFSGSRSGTDFTLTISSLQPEDFATYYCQQWWWWPSTFGQGTKVEIK
B17: A21 (positive control IgG) (antibody, V domains shown)
VH: EVQLQQSGPEVVKTGASVKISCKASGYSFTGYFINWVKKNSGKSPEWIGHISSSYATSTYNQKFKNKAAFTVDTSSSTAFMQLNSLTSEDSAVYYCVRSGNYEEYAMDYWGQGTSVTVSS
VL: DIVLTQTPSSLPVSVGEKVTMTCKSSQTLLYSNNQKNYLAWYQQKPGQSPKLLISWAFTRKSGVPDRFTGSGSGTDFTLTIGSVKAEDLAVYYCQQYSNYPWTFGGGTRLEIK
notes: Positive control IgG; also called Antibody A21

Target: T1, extracellular domain (ECD) of human epidermal growth factor receptor 2 (HER2) (Homo sapiens, UniProt P04626)
T1 construct: human epidermal growth factor receptor 2 (HER2), extracellular domain; also called HER2/ECD
Assay: SPR; BIAcore T200; HER2/ECD immobilised on a CM5 chip by amine coupling to 1000 RU; IgG flowed in PBST (0.05% Tween 20) at 30 uL/min; regeneration 10 mM glycine pH 1.5; global fit to a 1:1 binding model
Conditions: both partners purified

Kd | koff | kon | Binder
3.04 nM | 0.000217 s⁻¹ | 71200 M⁻¹ s⁻¹ | B1
49.4 nM | 0.00163 s⁻¹ | 33000 M⁻¹ s⁻¹ | B2
9.84 nM | 0.0608 s⁻¹ | 6.18e+06 M⁻¹ s⁻¹ | B3
6.02 nM | 0.000288 s⁻¹ | 47800 M⁻¹ s⁻¹ | B4
13.4 nM | 0.0131 s⁻¹ | 975000 M⁻¹ s⁻¹ | B5
0.169 nM | 0.000235 s⁻¹ | 1.39e+06 M⁻¹ s⁻¹ | B6
0.27 nM | 0.000104 s⁻¹ | 387000 M⁻¹ s⁻¹ | B7
13.3 nM | 0.00525 s⁻¹ | 395000 M⁻¹ s⁻¹ | B8
11.9 nM | 10.9 s⁻¹ | 9.15e+08 M⁻¹ s⁻¹ | B9
2.47 nM | 0.00679 s⁻¹ | 2.75e+06 M⁻¹ s⁻¹ | B10
1.53 nM | 0.00556 s⁻¹ | 3.64e+06 M⁻¹ s⁻¹ | B11
31.8 nM | 0.0111 s⁻¹ | 350000 M⁻¹ s⁻¹ | B12
37.9 nM | 0.0128 s⁻¹ | 339000 M⁻¹ s⁻¹ | B13
54.5 nM | 0.328 s⁻¹ | 6.03e+06 M⁻¹ s⁻¹ | B14
0.177 nM | 0.000149 s⁻¹ | 840000 M⁻¹ s⁻¹ | B15

Target: T2, extracellular domain (ECD) of human epidermal growth factor receptor 2 (HER2) (Homo sapiens, UniProt P04626)
T2 construct: human epidermal growth factor receptor 2 (HER2), extracellular domain (domains I-IV); also called HER2/ECD
Assay: competition binding assay; competition of S90 scFvs with IgGs (six mouse IgGs, four positive control IgGs) for binding to HER2/ECD; procedure in the Supplemental Experimental Procedures
Conditions: not given

binding result | Binder
binds | B16
binds | B17
